The domain aggregation screens of Martell et al. (2025)

Test: soluble fraction after stress (log2 fold change); higher = more stays soluble; pooled small domains, quantitative proteomics
Settings: stress: pH 4
Method in brief: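 Aggregation propensity is read out as the fold change in how much of each domain remains soluble after acid stress. The custom small-domain libraries were pooled, held at pH 4 and analysed with high-throughput quantitative proteomics. On the log2 scale used, higher values mean more of the domain stayed soluble.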

Sequence	soluble fraction (log2)
HMTTVTVGSKVRVKAGATFSDGAKPFAEVYNTVYDVQLLSHNGKEARIGIGDQWTGWIYISDLYLANQPAP	-0.101
HMRYWVKSETDFLIENRGKYSYQEFADMLGRSYAVVYDKMHQLKIDYTKEELEIFDEKHKAQMREKQQR	-0.665
HMGAITGLQSRVAFLKGQGTITDAEAKTAMAFLPDPTDSKEVKIAKIGQAREYIMSLIENRA	-0.0578
HMRSFRIGGLVEQGSIARDGQSLTVRFAVTDLAHKIPVTYTGLLPDLFKEGKGVVAEGKLGPDGVFHASQV	-0.705
HMEPIAFDNMHNRGIKGTNDWTQYEITLPFSAEAKKIFVAGLLVGKGKAWFDKFEVFLDGKNITDVAQI	-0.0075
HMASIGTATVTADNLRLRSEAGTGAETLTMAPKGAEVTVEEDAGDGWYKVTYGDTEGYMSGEWLKITLA	-0.0742
HMSRYQDIANDIEKDIIEKKYTRKLPEQFELAQKYQTSRVTIVHALKILQNKKLIRTVKGHGTFITS	≥ 0.43
HMNEMIFNQKKIGQFFMNPETNSPMIYPLELGHKMKIIELKNGWYNVTDEKTGLNGWVKEEDFGVTKPLDS	0.0629
HMPNIHVVFAEEWTDRRLDKVLSEYFDGYSRSFIKKLFDDGLILVNSKAVKPSYKVRAGDMIDISVPDPV	-0.465
HMGSNRPLALGDVVRIEGSKTLGTILELNAKDAVVALGALKTTLPLSRIHHASSQESQRLKRQATQAPLR	0.0932
HMASANMPDVLGLDAETAKQVLAAKGFTKVEIYPMESSEPANRVVRQSEDRDTMVALTKEILLGVSNGS	-0.0377
HMPEITPAMIKALLSSLSEELAFASVTKVYAVLHNLFKAALLDDTIDRNPMDKVPRPRKSKDAAL	-0.424
HMTDVIADMLTRIRNAASSKHQTVDIPSSNLKKEIAKILLEEGYIRDFIEIDDKKQGIIRITL	-0.617
HMDLVESYDLKIIYTSELINLLIDSSRLEEALNLFKDLKDEIDDVENLGFSAKNNLDYMESKLLHLG	-1.6
HMEGFSAGQFVRASVDNTAFYLKRPKGDAVADKLLRRGASMKVISASGDYLKVELDSGEVGFVPPVMVE	0.0892
HMSMTLSVLDDVRGLSESRRKQLFHSFGSIKKLREQSKETLMSIPYLPEKVALELYDKLHEE	0.272
HMNMPHEIDANFISSLGRLIDNHGKNYGDFQIFREMFLDYFPRFDELSSNNKEKINRRLYKFFETLFG	-1.44
HMPPDVIENIFKNDANKIIDLYNMAPRGQKETIVEMIKNKRLQGINVDANVLVKLGELTGIDFVN	-1.37
HMNPSPYLRRHLSGDWGDLDEDDRRSNDAALASGEARLLSSYQVDPDLKLWIITEWDRSVTTLLLPSE	≥ 0.43
HMGRRRAAPQEPLRQFPASPVTGQPIKLLLGQYGPYVTDGTTNASLPKGSSPDELTFEQATQLLAERALRG	0.0322
HMDGAPVTVIKNGEVDVATTMRVGLSASELMFKLRAAGVDEVQIVHRAVLEQNGQLTIIKYGEE	-1.2
HMYAGTWISESGQWKYRNDDGSFAKGWFQDLDSRWYYFDANGHMLSDTLTPDGYRLGEDGAWVND	-1.42
HMSDAPLLSIRSLAVAFDGTRVVDGVSFDVARGEVVALVGESGSGKTVTGLSLLDLVPPPGRRVGGEV	-0.025
HMDFSNVNFSQVSDSELDLLMRRASAQGYTQFDLLKIARAQGLTQAEIEKLDKRFKSAETVAYVAENA	0.0811
HMNVQGFVFDLAEPLDKVPSIEGFPLKLEDPLTLVAAVNKDRSINALFAELSKLNIKIKSMRNE	-0.458

Sequence	soluble fraction (log2)
HMGVAAEDPDEAEKGAHSLKSSAANVGAEVVRGLAGEIESAASSGDVEAVRTILPGLEDAYSQAITDLET	0.133
HMQQKNWIVRDGDGKIYGPFTTEQVLVQIDRGYFVGGEEVALYPGGRWIAISGAPEFYDRLLDALAMEG	-1.29
HMGRKPVSPEIVERVLQLAKSNPDWGYEHIAGTMRYLGYNVSATTIRHILEANGIVPDPERRL	-0.543
HMAPGSKAEIPEDLMKVINKDPKMKAFVATLNKANIMAISFRLSTAKKPETRERRFNLILETLKRGEKF	-0.644
HMSPRADRSVNLDVGETVQIDDWGADGTAQIRYRGAPWTAVLRPGHTPHPGPHRVIELVGSRLLVEP	-0.746
HMPLSDAEKAAAIATQAKERALKLSPEMISYLLRHASRDMRTLSMLVVALDQYTLEQKRPVTLPLLRELLS	-0.0153
HMVYLPSSIKNIPTKYGEMMVANFKMDELQANSKNGWVSMVISERREPSEKGATHYAYVNTY	0.106
HMQGNGKVATELLKDIIASDNLYINAMRMLVMHYNSKGTNQVEMVKLLHNILDLVPDDEYANEILKSAKKA	-0.637
HMRAMWENLFFQYKEGFLPEEYYKQGIATGIRLAGPKFVEMNIPMQKEFEDEVHRLLAEHEKSVK	-0.795
HMLIIMNSDATKEQVDHVTSRVREAGFKDHIMPGAGKVAIGVTGTGDYDQTKLHLEILPGVFKIMRITK	-0.0509
HMEVPMELPRQLRANRERLGLSQEDVAHAIYVSRQTMSSWERGKTYPDVQSLMLLSHLFGISIDELVKGDV	-0.338
HMRQKTTFFATESFELPNGEKVEEGQIFRLNDGAFNIAEQQGITRFLTSEANYGRMIAANAEVEKAKLDA	-1.05
HMDDTVILPIQINGKRRAEISVPKAMPASEVEKLALANEDVLRFLAGQPIKKLIVVPGRIINVV	≥ 0.43
HMTVSKLKVINYTIRNGDSLWTISRKFNVTVDKVKEWNGLSDRTLLQPGQKLTLYVDPTIQISH	-0.406
HMGKKQLVVDLQSIITDVPAALKSYGLEIGQDGKSLIYTYDTKGERTGITTLLNDLQKAGLQMTDMKTQQ	-0.0755
HMEAISSESIKKMIKSYVSGEDASKPLSDQQIADLLVKEGYMISRRTVAKYRDELGILSSSKRKR	≥ 0.43
HMANSREIPKLAGIEQEEAVKQLLDLDLKPVIEEITDDDTDAGDVVRTDPAAGEHVAVDTEITVFISIG	-0.192
HMDHAHWEEHEVKLLLTLAIQEKEKFNWNQFGLTREGWRNIYPHFPQYSRKQINNKFDFLKQKYRAWKDS	-1.09
HMQGEKDDLWREVLDNPDAWWDNRERKNAPGGNPRYPDFKHKDSQTPLWIESRDTPQWAIDALL	-0.406
HMLPEGIENGDVLTRTDALDYRKWLVTGNQKRIFASTASFYGENFNYSEVKAVSDRVLDAIPDGEPV	-0.549
HMKNYYELLGVAREASQDQIKKAYRKLARKYHPDVSKEADAETRMQELNVAYDTLSDAEKKREYDFQLDHP	0.218
HMNKSYTVPDVRGMTVEEAQEAEGVKDIFTVHVQGTRKTDEYQPGQIVEQDPIAGRTRKSNFVIEVYVAE	-0.237
HMDNPPDRAEIEQMLKDAGLTPEADAMAALSDLARTLDPGDFRQTLEKITLYKLGDSTPIGLDDIAAGAP	-1.18
HMRSPIWKSITATLTAEIAGGQYRAGDKLPTEAELSQRFGVNRHTLRRALAEMAGAGLVVARRGAGVFVQG	-0.289
HMDNMFMPPVNGWDVRQALQKLQNEMGLQVKMEYSPSETITEGYVISYTPIDGMKVEKGDEVTLVISTGPE	-0.675

Sequence	soluble fraction (log2)
HMKYGPSTVATLKVARLGEMGAFLDAETGDTSDDILLHKTQQTAPVKVGDEVEVFLYLDPKRRLTASMRV	-1.07
HMKQLLHLVIGGELKDVRGIEFEDLSKIDFVGAFPSYKAAYDAWKNAAQRTVDNAEMRYFILHAHR	-1.37
HMATAEETTPLWARNRLSHAIFGPGSVTGEDERSFEVAFDNGDTLNFSKKSAHLYFTAMSSR	-0.808
HMPKLTKEEIQFIDNYLKNSGVEYIDTRAEVVDHVASEIESRLSANNTTNFYEEFKVYMVQHKETLLK	-0.96
HMDPPVDLTPREQQVLSRIALGMSDKAIAAELGVSHQTVRNHVARIYAKIKVHSRSQAIVWAREKGIP	-0.109
HMVVVMNADAEADEIKRVKWNLEQMLFRTQVIYGVKRIVIGAIGDQREVDLSEIEQMPKVDKIVRISK	-1.39
HMIMQTTSDRINQRMRDLGLQHKDLVAATGASKGTVTNWINGVNNPTGKRLVQLAQALKTTSSWLLTGN	-0.0389
HMTDTIALRSVIAESGLKYKALAEIMGLSPYTLQMKIDNESEFKASEIDALANALGMDMQQRDSIFF	-0.406
HMPTSLPGIDIDEKNIVSSTGALSFKKVPKKLAIIGGGYIGLEMGSVWSRLGSSVTVIEYLNFITPG	-0.172
HMPQQVFKREDLQKWGLTGQADSRKRREKLGQLLGIGYGNGKQLIHRLNMFQVDRATFEQAIKQINQEEDH	0.00776
HMNKMHKLPSVSEILNKVRLQKIHNESFIKFKIKEEIDRYRKLAKKDQLFLSRDEITYEIIEKLLNFSMPS	-0.771
HMGEVYPSDIVEKMKQANLHILEGTLYPLLTRLKNAGLLNYRWVESVTGPPRKYFVMTEEGKAAF	0.0276
HMRRFEFSDGSSNKFWQITRDGTSLTVTFGKIGTAGQTQLKELATEAAAIAEHDKLVKEKTKKGYAEVG	-0.157
HMVDISLSDRELEVLRLLAMGLSNADISRRLYLSEGTIRNYMSGIFSKLNVSDRTQAVVIALREGLVNL	-0.976
HMQDTRSHARKMLAAIEALLEGRSGSDIQAYTIHNRSITKMTVPELVKWRSYYQQQVRSEDAAASLA	0.206
HMQVAPDLMQRLTSQGHVDEKLSDALVHARQITNFEGRRRQMQFIGKLMRKLSEESIEAVKDALNEQRM	-0.244
HMSGMEKLAIQEIEKEIKSFVKGDILIELTGKNRATAYVSEKNVGALIGKKGERINSIEKRLGVGIDVRPY	-0.275
HMQNREQNILDGKSILDKELKRVGLLNQSAAIMAQEMKFNSQDDLFAALGSGATRIGQIINHLQKQS	0.0793
HMKLEKKWIEAVEKYRRYVLSTGIKHVQKPIEFENFRLGQWYADVRQSYRRGTLSKEKLLEIREINPDFPN	0.324
HMDIFSSFVAIKNANVRELPTAKSAQVATLSKGSEVTALGKVKGKNWYLVARDGKELGYVFGSLIAEAET	0.143
HMVKVEVKPNVLQWVIKRMDNFDRLKDQFPNIDKWINQESQPTLKQLEKLAKMTAVPLGYFFLPNPPEEK	-0.507
HMALPPPELRGATGEAVTALRPAGIALIQGKRYDVLAEGGEWIAAGAAVRVRDIRNGHLIVSDA	0.166
HMRAGALTTLTERERNVFDLVVTGHSNPEIARQLSIADVTVKTHVGHILSKLGVRDRVHLVIWAHRQGLAD	0.0561
HMASPEIAFLNKFYQLSNTVNEISVMKIVKNYQEKYQQRISIEQMAKTLKTMGYAVRNNIISNIEEAPV	0.0906
HMTIYPFNPNYLKDYQAYRVGLSLKEIDALLDFRSSGQWINSAEDFQRITGVSDSVLEQLIPYFKFS	-1.73
